# B1: 3I14 VLD94N variant IgG1 (antibody, V domains shown)
# VH: QVQLLESGGGVVQPGRSLRLSCAASGFTFSNYGMHWVRQAPGKGLEWVAIISFDGSKKYYANSVKGRSTISRDNSKNTLSLQMNSLGPEDTALYYCAKLPSPYYFDSRFVWVAASAFHFWGQGILVTVSS
# VL: NFMLTQPPSASGTPGQRVTISCSGSSSNIGGNTVHWFQQLPGTAPKLLIYTNSLRPSGVPDRFSGSKSGTSASLAISGLQSEDEADYYCAAWDNSLNGQVFGGGTKLTVL
# Molecular target: Recombinant full-length HA of A/Vietnam/1203/04 (H5-VN04) (Influenza A virus A/Vietnam/1203/2004 …, UniProt Q5EP31)
# Test: BLI
# Conditions: both partners purified
binder,measurement,value
B1,Kd,0.187 nM
same,koff,7.74e-05 s⁻¹
same,kon,383000 M⁻¹ s⁻¹
